# B1: library; numbered along this chain (parent)
# chain: MRKPRAAVGSGHRKQAASQEGRQKHAKNNSQAKPSACDGLARQPEEVVLQASVSSYHLFRDVAEVTAFRGSLLSWYDQEKRDLPWRRRAEDEMDLDRRAYAVWVSEVMLQQTQVATVINYYTGWMQKWPTLQDLASASLEEVNQLWAGLGYYSRGRRLQEGARKVVEELGGHMPRTAETLQQLLPGVGRYTAGAIASIAFGQATGVVDGNVARVLCRVRAIGADPSSTLVSQQLWGLAQQLVDPARPGDFNQAAMELGATVCTPQRPLCSQCPVESLCRARQRVEQEQLLASGSLSGSPDVEECAPNTGQCHLCLPPSEPWDQTLGVVNFPRKASRKPPREESSATCVLEQPGALGAQILLVQRPNSGLLAGLWEFPSVTWEPSEQLQRKALLQELQRWAGPLPATHLRHLGEVVHTFSHIKLTYQVYGLALEGQTPVTTVPPGARWLTQEEFHTAAVSTAMKKVFRVYQGQQPGTCMGSKRSQVSSPCSRKKPRMGQQVLDNFFRSHISTDAHSLNSAAQ
# Variants of: B1
# Experiment: 8OG:A repair function score (normalized; synonymous = 0, nonsense = -1) (normalized log-likelihood score); higher = more repair activity (WT-like)
# Conditions: with 8OG:A DNA repair reporter (GFP) in HEK-293 MUTYH KO cells
# Outline: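 MUTYH knockout HEK-293 cells carrying lentiviral MUTYH cDNA NNN codon-scan libraries were grown with 10 pg/ml doxycycline and co-transfected with mCherry and a GFP reporter of 8OG:A repair. Viable mCherry+ cells were sorted at 72 h into GFP+ (repair) and GFP− bins, with three replicates per tile, and tile amplicons were sequenced. Rosace fitness scores for each tile were turned into a normalized repair function score anchored on the synonymous and nonsense distributions. Synonymous medians were set to 0 and nonsense medians to -1, and variants below 300 counts per million at the start were dropped.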
row,Variant,8OG:A repair function score
1,F466I,-0.587
2,P443K,-0.324
3,L349T,-0.236
4,V48N,0.0431
5,Q159W,0.287
6,L268T,0.012
7,T176C,-0.0512
8,T176W,-0.419
9,A519K,0.0032
10,S486D,0.00623
11,S486N,0.00666
12,G297F,0.016
13,L49T,0.0602
14,V107R,-0.87
15,S487C,0.0168
16,R98D,-0.438
17,R98F,-0.114
18,R491W,-0.00998
19,R398Y,0.174
20,P377L,-0.733
21,V301Q,-0.242
22,P225T,-0.0501
23,P316A,-0.176
24,P316C,-0.0546

row,Variant,8OG:A repair function score
1,F250I,-0.896
2,C262W,-0.941
3,I195Q,-1.01
4,D91A,0.0065
5,E46S,-0.0996
6,R97Y,-0.0378
7,I359R,-0.51
8,K492V,-0.0261
9,Q351P,-0.756
10,A513N,0.0128
11,D322Q,-0.0416
12,Q144V,-0.0203
13,Q288P,-0.036
14,R154V,-1.04
15,R86H,-1.85
16,E140G,-0.183
17,E140L,-0.0779
18,T130S,0.107
19,Q323E,-0.0118
20,G326I,-0.411
21,Q397W,0.284
22,Q252P,-1
23,P267K,-1.06
24,A457C,-0.467

row,Variant,8OG:A repair function score
1,A457V,-0.205
2,W399M,-0.301
3,Q239H,0.289
4,K337G,-0.0801
5,P402T,-0.26
6,P402I,-0.0565
7,M255D,-1.03
8,M255C,-0.788
9,W374T,-1.02
10,W374Y,-0.274
11,W374L,-0.36
12,S480E,-0.00292
13,D224A,-0.954
14,S55P,-0.274
15,S55G,0.00135
16,A67S,0.00133
17,R88S,-0.00167
18,P352R,-0.124
19,A36V,0.0896
20,Y121N,-3.31
21,A305F,-0.0551
22,S335V,-0.0166
23,S335N,0.0783
24,S71K,-0.0254

row,Variant,8OG:A repair function score
1,L411F,-0.151
2,S318G,-0.0532
3,K80P,-0.105
4,T122E,-0.0848
5,L393N,-1.03
6,F418K,-0.75
7,L215V,-0.573
8,C347P,-1.08
9,C272E,-1.29
10,H420Y,-0.672
11,L180G,-0.785
12,R60V,0.00595
13,L131N,-0.249
14,H454M,-0.158
15,A291S,-0.000102
16,P299F,0.00405
17,C314S,-0.593
18,C314K,-0.485
19,A220Q,-0.691
20,R2L,-0.084
21,V274R,-0.994
22,T263L,-0.0322
23,T439S,-0.0274
24,T439E,0.0225

row,Variant,8OG:A repair function score
1,S367R,-0.201
2,R336K,-0.0529
3,G309A,-0.0354
4,S227G,-0.0911
5,V65M,-0.139
6,Q499G,-0.0117
7,C489F,-0.0128
8,W128H,-0.948
9,L313D,-0.363
10,T346F,-0.247
11,P488M,-0.0122
12,V53H,0.00594
13,P84W,-1.29
14,E64N,-0.0585
15,R157A,-0.14
16,A371L,-0.5
17,H312M,-0.0518
18,A89F,-0.0315
19,K463T,-0.141
20,R409V,0.0575
21,Q470A,-0.0419
22,G205Q,-0.764
23,G205C,-0.378
24,Y76C,-1.48

row,Variant,8OG:A repair function score
1,W124K,-0.931
2,W124N,-1.01
3,Q182I,-0.0148
4,V414P,-1.01
5,V414S,-0.294
6,A461G,0.00127
7,A280C,-0.398
8,S153E,-0.117
9,R482A,0.0234
10,E90Y,-0.107
11,V415I,0.053
12,V415K,-0.327
13,L145T,-0.001
14,L145M,0.00629
15,L370V,-0.484
16,L325V,-0.142
17,P185M,-0.282
18,V261L,-0.0765
19,V261G,-0.599
20,V261Y,-0.342
21,M496D,0.00779
22,Q202H,-0.0825
23,S276Q,0.0194
24,R81E,-0.678

row,Variant,8OG:A repair function score
1,A99S,-0.124
2,A99L,-0.788
3,R283Y,-0.0964
4,T436C,-0.201
5,T436V,-0.079
6,P44H,-0.0386
7,Q521T,-0.0167
8,H514G,0.0114
9,E342H,0.0491
10,L430P,-0.888
11,G401M,-0.302
12,S419Y,-0.503
13,G123W,-0.322
14,D61E,-0.0493
15,D61L,0.00218
16,A334L,-0.0917
17,F453T,-0.694
18,M478Y,0.0167
19,T324Q,-0.0692
20,L290G,-0.0171
21,A254R,-0.99
22,W85F,-0.238
23,L109C,-0.0119

# Reference: the supplement of paper PMC11908140
